Target: T1, PSTPIP, full-length, with a C-terminal FLAG epitope (murine, UniProt P97814 1-415)
T1 construct: In vitro transcribed/translated or expressed in COS cells from pRK.PIP.FLAG.C
T1 sequence: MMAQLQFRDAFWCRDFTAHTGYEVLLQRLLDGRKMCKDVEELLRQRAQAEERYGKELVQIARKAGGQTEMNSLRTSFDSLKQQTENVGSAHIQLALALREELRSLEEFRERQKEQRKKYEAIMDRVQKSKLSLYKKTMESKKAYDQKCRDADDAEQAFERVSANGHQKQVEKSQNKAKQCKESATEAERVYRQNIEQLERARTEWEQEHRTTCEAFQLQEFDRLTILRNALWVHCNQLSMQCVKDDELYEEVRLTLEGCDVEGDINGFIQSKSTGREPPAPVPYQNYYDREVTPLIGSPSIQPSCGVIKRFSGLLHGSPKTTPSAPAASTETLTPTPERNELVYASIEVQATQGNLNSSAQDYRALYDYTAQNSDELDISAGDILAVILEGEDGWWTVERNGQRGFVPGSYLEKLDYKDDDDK
Assay: peptide competition of GST-PST-rich+CTH PTP HSCF pull-down of in vitro translated PSTPIP

GFGNRFSKPKGPRNPPSAW (Synthetic peptide) [PXXP-PEP peptide, 782GFGNRFSKPKGPRNPPSAW800 (PTP PEP)]
lowest concentration that blocks the interaction: ~800 nM

B1: PXXP-HSCF peptide, 432GFNLRIGRPKGPRDPPAEWT451 (PTP HSCF) (peptide)
peptide: GFNLRIGRPKGPRDPPAEWT
notes: Synthetic peptide; also called C-terminally derived PTP HSCF peptide; peptide derived from the C-terminus of PTP HSCF
lowest concentration that blocks the interaction: ~800 nM

GFGNRCGKPKGPRDPPSEWT (Synthetic peptide) [PXXP-PEST peptide, 761GFGNRCGKPKGPRDPPSEWT780 (PTP PEST)]
lowest concentration that blocks the interaction: ~800 nM

Reference: patent publication EP0980426B1 (Genentech, Inc., dated 2004)
